Assay results as given in the supplement of paper PMC10724198.
± gives the standard deviation of the averaged measurements.

Tests used:
[1] = test system: Saccharomyces cerevisiae; test: protein stability index of tFT-peptide fusion (C-terminal peptide) (PSI (0-1 scale)); higher = more stable (slower turnover)
Experimental: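 MPS profiling in S. cerevisiae of the tFT-X12 degron library: putative degron peptides plus stable controls, 12 aa, fused to the C-terminus of a sfGFP-mCherry timer. Cells are FACS-sorted into 8 mCherry/sfGFP bins and deep-sequenced. PSI runs from 0 (unstable) to 1 (stable). Backgrounds are wild type, das1Δ and doa10Δ at 30 °C, and wild type, das1Δ, cdc34-1 and cdc53-1 at 37 °C; 2-3 technical replicates each.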

[2] = test system: Saccharomyces cerevisiae; test: as above; settings: genetic background: wild type; temperature: 30 C
[3] = genetic background: cdc34-1, temperature: 37 C
[4] = genetic background: cdc53-1, temperature: 37 C
[5] = genetic background: das1 deletion, temperature: 30 C
[6] = genetic background: das1 deletion, temperature: 37 C
[7] = genetic background: doa10 deletion, temperature: 30 C
[8] = genetic background: wild type, temperature: 30 C
[9] = genetic background: wild type, temperature: 37 C
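Further: PSI is a weighted mean of sequencing reads over stability bins, variants kept only with over 10 reads, mCherry proximal and sfGFP distal, peptide attached via GGGS linker.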

| Sequence | protein stability index [1, 3] | protein stability index [1, 4] | protein stability index [1, 5] | protein stability index [1, 6] | protein stability index [1, 7] | protein stability index [1, 8] | protein stability index [1, 9] | protein stability index [2] |
| --- | --- | --- | --- | --- | --- | --- | --- | --- |
| VFWLLVAVLRYW | 0.224 ± 0.018 | 0.247 ± 0.0056 | 0.243 ± 0.023 | 0.354 ± 0.0044 | 0.263 ± 0.011 | 0.222 ± 0.016 | 0.325 ± 0.013 | 0.307 ± 0.06 |
| VLLMFFFRFSAL | 0.589 ± 0.053 | 0.717 ± 0.014 | 0.545 ± 0.033 | 0.685 ± 0.02 | 0.483 ± 0.011 | 0.491 ± 0.022 | 0.624 ± 0.013 | 0.523 ± 0.049 |
| SYGNGIPIRMLH | 0.656 ± 0.035 | 0.707 ± 0.026 | 0.641 ± 0.013 | 0.728 ± 0.013 | 0.204 ± 0.013 | 0.217 ± 0.013 | 0.422 ± 0.05 | 0.329 ± 0.014 |
| FFICCPLLVVCS | 0.0277 ± 0.012 | 0.0453 ± 0.027 | 0.091 ± 0.022 | 0.0716 ± 0.018 | 0.064 ± 0.016 | 0.0665 ± 0.035 | 0.0677 ± 0.021 | 0.109 ± 0.041 |
| FFFPFLCIAVSL | 0.464 ± 0.036 | 0.474 ± 0.016 | 0.418 ± 0.034 | 0.472 ± 0.0053 | 0.4007 ± 0.0018 | 0.413 ± 0.018 | 0.436 ± 0.011 | 0.458 ± 0.022 |
| RCIFYHSPVLCL | 0.469 ± 0.022 | 0.515 ± 0.022 | 0.399 ± 0.023 | 0.51 ± 0.0089 | 0.365 ± 0.0064 | 0.398 ± 0.018 | 0.511 ± 0.041 | 0.449 ± 0.02 |
| SLFSPPVLATPS | 0.668 ± 0.031 | 0.7094 ± 0.0039 | 0.572 ± 0.018 | 0.705 ± 0.011 | 0.556 ± 0.02 | 0.569 ± 0.022 | 0.6797 ± 0.0026 | 0.0217 ± 0.0033 |
| FVVHPARYYLVL | 0.558 ± 0.077 | 0.682 ± 0.019 | 0.595 ± 0.023 | 0.664 ± 0.017 | 0.355 ± 0.0048 | 0.385 ± 0.02 | 0.489 ± 0.014 | 0.4265 ± 0.0029 |
| GGMVRSCLWCFV | 0.675 ± 0.034 | 0.755 ± 0.014 | 0.6 ± 0.011 | 0.754 ± 0.029 | 0.322 ± 0.011 | 0.357 ± 0.018 | 0.585 ± 0.0078 | 0.432 ± 0.01 |
| LSRFGSTCPSGL | 0.72 ± 0.038 | 0.7696 ± 0.0062 | 0.642 ± 0.011 | 0.765 ± 0.032 | 0.6358 ± 0.0032 | 0.638 ± 0.012 | 0.7477 ± 0.0031 | 0.724 ± 0.0079 |
| FVVGFVCSMVWG | 0.0975 ± 0.012 | 0.216 ± 0.024 | 0.0889 ± 0.026 | 0.252 ± 0.0045 | 0.0599 ± 0.0055 | 0.0702 ± 0.019 | 0.2266 ± 0.0022 | 0.144 ± 0.016 |
| YQHSRSGRNKII | 0.591 ± 0.12 | 0.724 ± 0.033 | 0.652 ± 0.028 | 0.716 ± 0.021 | 0.109 ± 0.0063 | 0.117 ± 0.034 | 0.122 ± 0.035 | 0.235 ± 0.012 |
| VVWVYSMLFSIW | 0.19 ± 0.02 | 0.3594 ± 0.00053 | 0.231 ± 0.034 | 0.403 ± 0.015 | 0.202 ± 0.013 | 0.221 ± 0.021 | 0.415 ± 0.068 | 0.276 ± 0.0055 |
| RWSEHGFLVFLS | 0.643 ± 0.022 | 0.736 ± 0.012 | 0.664 ± 0.016 | 0.7408 ± 0.0018 | 0.156 ± 0.015 | 0.158 ± 0.015 | 0.373 ± 0.04 | 0.301 ± 0.021 |
| LIVCVKAITIVS | 0.0266 ± 0.0046 | 0.0452 ± 0.011 | 0.0357 ± 0.0096 | 0.0917 ± 0.019 | 0.0226 ± 0.0029 | 0.0194 ± 0.0031 | 0.0521 ± 0.031 | 0.0363 ± 0.015 |
